Experimental data: patent US20210023121A1, “THROMBIN-RESPONSIVE HYDROGELS AND DEVICES FOR AUTO-ANTICOAGULANT REGULATION” (North Carolina State University, priority 2017, published 2021)

Molecular target: T1, thrombin (Bos taurus, UniProt P00735)
T1 construct: purchased Sigma-Aldrich
Test: LC-MS analysis of peptide cleavage by thrombin
Format: biochemical
Conditions: 12 h incubation with 1 U mL^-1 thrombin in Tris buffer pH 7.4
Procedure: LC-MS analysis of peptide cleavage. Peptide with sequence GGLVPR|GSGGC (SEQ ID NO:1) was incubated with thrombin (1 U/mL) in Tris buffer (20 mM Tris, 150 mM NaCl, 2.5 mM KCl, pH 7.4) for 12 h.

cleavage of the peptide by thrombin (LCMS): efficiently cleaved
Sequence: GGLVPRGSGGC [thrombin cleavable peptide, linker peptide cleaved by thrombin between Arg and Gly]
